Test results taken from patent US20230183336A1 (MODMAB THERAPEUTICS, published 2023).

Molecular target: T1, recombinant mouse LRP6-His chimera (mouse, UniProt O88572 20-1370)
T1 construct: extracellular domain; also called ECD of mouse LRP6; not shown: His tag
T1 sequence (looked up): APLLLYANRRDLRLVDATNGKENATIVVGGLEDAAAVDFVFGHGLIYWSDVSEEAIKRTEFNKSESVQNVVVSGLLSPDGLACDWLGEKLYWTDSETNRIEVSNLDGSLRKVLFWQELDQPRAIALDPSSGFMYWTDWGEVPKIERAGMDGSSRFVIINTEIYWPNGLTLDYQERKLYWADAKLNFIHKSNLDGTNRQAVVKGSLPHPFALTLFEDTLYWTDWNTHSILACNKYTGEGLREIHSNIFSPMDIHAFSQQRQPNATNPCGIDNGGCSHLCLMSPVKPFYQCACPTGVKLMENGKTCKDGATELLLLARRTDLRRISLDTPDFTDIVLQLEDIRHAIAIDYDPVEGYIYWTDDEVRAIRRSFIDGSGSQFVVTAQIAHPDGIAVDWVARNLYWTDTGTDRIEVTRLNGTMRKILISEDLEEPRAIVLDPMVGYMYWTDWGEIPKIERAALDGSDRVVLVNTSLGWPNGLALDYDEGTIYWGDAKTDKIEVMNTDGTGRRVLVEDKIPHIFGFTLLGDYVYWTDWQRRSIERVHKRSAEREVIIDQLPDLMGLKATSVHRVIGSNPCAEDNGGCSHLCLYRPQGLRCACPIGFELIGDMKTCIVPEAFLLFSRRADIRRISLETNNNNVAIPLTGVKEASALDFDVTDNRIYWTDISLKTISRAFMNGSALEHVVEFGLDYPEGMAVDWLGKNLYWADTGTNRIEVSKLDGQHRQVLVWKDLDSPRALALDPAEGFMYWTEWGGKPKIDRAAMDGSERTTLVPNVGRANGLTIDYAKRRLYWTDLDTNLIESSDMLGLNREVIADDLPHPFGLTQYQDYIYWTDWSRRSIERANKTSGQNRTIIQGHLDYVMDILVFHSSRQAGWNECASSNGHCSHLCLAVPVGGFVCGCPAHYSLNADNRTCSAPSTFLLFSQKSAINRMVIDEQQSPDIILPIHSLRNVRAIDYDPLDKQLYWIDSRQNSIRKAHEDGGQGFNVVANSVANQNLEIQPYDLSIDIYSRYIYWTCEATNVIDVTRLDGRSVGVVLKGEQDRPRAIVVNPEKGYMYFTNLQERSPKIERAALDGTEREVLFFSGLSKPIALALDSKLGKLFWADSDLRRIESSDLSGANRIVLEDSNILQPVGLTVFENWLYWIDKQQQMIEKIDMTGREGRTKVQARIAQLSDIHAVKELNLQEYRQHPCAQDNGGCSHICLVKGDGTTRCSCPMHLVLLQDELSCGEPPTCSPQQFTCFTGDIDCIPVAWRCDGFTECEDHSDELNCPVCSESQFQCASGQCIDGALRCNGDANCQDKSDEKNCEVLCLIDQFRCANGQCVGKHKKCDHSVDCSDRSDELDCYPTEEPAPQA
Assay: single-point ELISA, coated antigen, purified Fab or IgG1, anti-kappa-HRP
Procedure: FIGS. 1A and 1B show sixteen (16) anti-LRP antibodies. (A) The amino acid sequences of the complementarity determining regions (CDR) of the heavy (H) and the light (L) chains are presented. The antibodies were grouped into unique epitopes as determined by competitive ELISAs. (B) Single-point ELISAs were performed on 96-well Maxisorb immune plates coated with ECD's of mouse LRP5, mouse LRP6 and human LRP6 chimeras. The plates were incubated with the purified Fab or IgG1 at the concentrations indicated followed by incubation with horseradish peroxidase (HRP)-conjugated anti-kappa antibody. The wells were washed eight times followed by incubation with 3,3′,5,5′-tetramethylbenzidine/H₂O₂ peroxidase (TMB) substrate for 5-10 min. The reaction was stopped by adding 1M H₃PO₄ and the absorbance was measured spectrometrically at 450 nm in a microtiter plate reader. FIG. 1A discloses “SSVA” as SEQ ID NO: 34, and “SASSLYS” as SEQ ID NO: 35, as well as SEQ ID NOS 36-49, 51, 44, 2-4, 4, 5-7, 5, 4, 5, 8-10, 4, 52, 55, 11-16, 15, 15, 13, 17-20, 13, 53, 56, 21-23, 22, 24-33, 54, 57, respectively, in order of columns.
The full length IgG1s and the antibody fragments (Fabs) were purified and a single-point ELISA was done to determine the specificity of the antibodies. […] A multipoint competitive ELISA was used to determine the relative affinities of the antibodies to the recombinant antigen.

B1: LRP5-H5 (antibody, V domains shown)
VH: EVQLVESGGGLVQPGGSLRLSCAASGFNLSYSSIHWVRQAPGKGLEWVASISSSYGSTSYADSVKGRFTISADTSKNTAYLQMNSLRAEDTAVYYCARGYWAIDYWGQGTLVTVSS
VL: DIQMTQSPSSLSASVGDRVTITCRASQSVSSAVAWYQQKPGKAPKLLIYSASSLYSGVPSRFSGSRSGTDFTLTISSLQPEDFATYYCQQPVGHYGYPITFGQGTKVEIKR
notes: Fab-phage in the screen
binding result: binds
